{
  "source": "paper PMC5992170",
  "about": "“Modular ssDNA binding and inhibition of telomerase activity by designer PPR proteins”",
  "key": {"[1]": {"tested_on": "cPPR-NRE (synthetic construct)", "test": "EMSA", "conditions": "dU as printed (AUUGUAUAUA); EMSA: 10 mM HEPES pH 8.0, 1 mM EDTA, 50 mM KCl, 2 mM DTT, 0.1 mg/ml BSA, 0.02% Tween-20, room temperature 30 min, 0.83 uM probe, 0-10 uM protein (Kd values …)"}, "cPPR-Telo1": {"target": "T1, cPPR-Telo1 (synthetic construct, UniProt PDB:5ORQ_1 1-364)", "T1 chain": "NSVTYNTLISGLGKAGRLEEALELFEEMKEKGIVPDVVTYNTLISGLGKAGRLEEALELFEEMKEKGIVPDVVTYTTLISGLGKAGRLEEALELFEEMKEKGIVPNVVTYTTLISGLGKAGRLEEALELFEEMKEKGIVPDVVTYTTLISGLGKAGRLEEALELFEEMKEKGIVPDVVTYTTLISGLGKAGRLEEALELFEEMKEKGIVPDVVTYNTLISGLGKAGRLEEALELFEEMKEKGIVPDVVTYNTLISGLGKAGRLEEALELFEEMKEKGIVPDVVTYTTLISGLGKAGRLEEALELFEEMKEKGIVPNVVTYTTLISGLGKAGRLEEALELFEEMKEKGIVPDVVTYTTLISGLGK", "test": "EMSA; EMSA: 10 mM HEPES pH 8.0, 1 mM EDTA, 50 mM KCl, 2 mM DTT, 0.1 mg/ml BSA, 0.02% Tween-20, room temperature 30 min, 0.83 uM probe, 0-10 uM protein (Kd values only in Supplementary Fig. 2 graphic)", "conditions": "protein: recombinant, tags: GST-His (pETM30), label: 5'-fluorescein via hexaethyleneglycol spacer"}, "cPPR-Telo1 (tag removed)": {"target": "T2, cPPR-Telo1 (tag removed) (synthetic construct, UniProt PDB:5ORQ_1 1-364)", "T2 chain": "T1 chain", "test": "X-ray crystallography (1.95 A); pH 4.6, 20 mM CaCl2; EMSA: 10 mM HEPES pH 8.0, 1 mM EDTA, 50 mM KCl, 2 mM DTT, 0.1 mg/ml BSA, 0.02% Tween-20, room temperature 30 min, 0.83 uM probe, 0-10 uM protein (Kd values only in Supplementary Fig. 2 graphic)", "conditions": "protein: recombinant; tags: none (GST-His removed by TEV); single strand"}},
  "data": [
    {"molecule": "AUUGUAUAUA [NRE ssDNA]", "values": [
      {"measurement": "binding signal (fold lower affinity than NRE RNA)", "setting": "[1]", "value": 3}
    ]},
    {"molecule": "GGTTAGGGTTAG (ssDNA)", "note": "[Telo-ssDNA]", "values": [
      {"measurement": "binding result", "setting": "cPPR-Telo1; single strand", "value": "binds"}
    ]},
    {"molecule": "GGTTAGGGTTAGGGTTAGGG (structured_DNA)", "note": "[Primer GG-a (Telo-ssDNA-GG)]", "values": [
      {"measurement": "binding result", "setting": "cPPR-Telo1; potential intramolecular G4", "value": "binds"}
    ]},
    {"molecule": "TTAGGGTTAGGGTTAGGG (ssDNA)", "note": "[Primer a]", "values": [
      {"measurement": "binding result", "setting": "cPPR-Telo1; single strand, cannot form G4", "value": "binds"}
    ]},
    {"molecule": "TTAGGGTTAG (ssDNA)", "note": "[cPPR-Telo1 target ssDNA]", "values": [
      {"measurement": "binding result", "setting": "cPPR-Telo1 (tag removed)", "value": "binds"}
    ]}
  ]
}
